# Source: paper PMC9352680, “A comprehensive thermodynamic model for RNA binding by the Saccharomyces cerevisiae Pumilio protein PUF4”
# T1: PUF4 RNA-binding domain (Saccharomyces cerevisiae, UniProt P25339 537-888)
# T1 sequence: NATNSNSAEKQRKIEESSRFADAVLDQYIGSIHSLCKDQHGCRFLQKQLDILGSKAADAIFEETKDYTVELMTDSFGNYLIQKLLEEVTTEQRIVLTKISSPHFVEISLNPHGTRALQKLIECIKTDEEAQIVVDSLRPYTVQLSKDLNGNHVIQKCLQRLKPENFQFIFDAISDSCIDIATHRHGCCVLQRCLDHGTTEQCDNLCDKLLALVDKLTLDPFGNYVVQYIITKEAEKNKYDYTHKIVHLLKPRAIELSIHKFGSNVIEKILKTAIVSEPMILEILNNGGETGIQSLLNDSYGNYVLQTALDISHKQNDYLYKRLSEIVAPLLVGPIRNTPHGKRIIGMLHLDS
# Target: T1, PUF4 RNA-binding domain
# Assay: Mg; RNA-MaP; 20 mM Na-HEPES pH 7.4, 30 mM KOAc, 0.75 mM MgCl2, 0.1% Tween-20, 5% glycerol, 0.1 mg/mL BSA, 2 mM DTT; 25 C; 0.0125-409.6 nM protein
# Settings: tags: N-His6-TEV cleaved; C-SNAP kept, Cy3B-labelled; label: tethered on chip by stalled RNA polymerase
row,Binder,Kd [nM]
1,UCUCUUCCACACUAUACUUCUCUU (ssRNA) [Id_ii_S1_P3E.4_K3.3_C3.2_[T-1C]_H3.3_A3.1_F3.1_T3.2_[T9C]_[A10T]],> 2300
2,UCUCUUAGACACUAUACCUCUCUU (ssRNA) [Id_ii_S1_P3E.4_K3.3_C3.2_[C-2A]_[T-1G]_H3.3_A3.1_F3.1_T3.2_[T9C]_[A10C]],> 2300
3,UCUCUUGUACACUAUAUAUCUCUU (ssRNA) [Id_ii_S1_P3E.4_K3.3_C3.2_[C-2G]_H3.3_A3.1_F3.1_T3.2],0.819
4,UCUCUUAAACACUAUAACUCUCUU (ssRNA) [Id_ii_S1_P3E.4_K3.3_C3.2_[C-2A]_[T-1A]_H3.3_A3.1_F3.1_T3.2_[T9A]_[A10C]],> 2300
5,UCUCUUUCACACUAUACCUCUCUU (ssRNA) [Id_ii_S1_P3E.4_K3.3_C3.2_[C-2T]_[T-1C]_H3.3_A3.1_F3.1_T3.2_[T9C]_[A10C]],> 2300
6,UCUCUUAGACACUAUACAUCUCUU (ssRNA) [Id_ii_S1_P3E.4_K3.3_C3.2_[C-2A]_[T-1G]_H3.3_A3.1_F3.1_T3.2_[T9C]],> 2300
7,UCUCUUAGACACUAUAUCUCUCUU (ssRNA) [Id_ii_S1_P3E.4_K3.3_C3.2_[C-2A]_[T-1G]_H3.3_A3.1_F3.1_T3.2_[A10C]],> 2300
8,UCUCUUUUACACUAUAAUUCUCUU (ssRNA) [Id_ii_S1_P3E.4_K3.3_C3.2_[C-2T]_H3.3_A3.1_F3.1_T3.2_[T9A]_[A10T]],> 2300
9,UCUCUUUGUAUAGUAUCUCUU (ssRNA) [Ia_S1_P4E.1_K4.1_C4.1_H4.1_A4.1_[T7G]_F4.1_T4.1],2.25
10,UCUCUUAUACACUAUAAUUCUCUU (ssRNA) [Id_ii_S1_P3E.4_K3.3_C3.2_[C-2A]_H3.3_A3.1_F3.1_T3.2_[T9A]_[A10T]],43.5
11,UCUCUUUGACACUAUAAAUCUCUU (ssRNA) [Id_ii_S1_P3E.4_K3.3_C3.2_[C-2T]_[T-1G]_H3.3_A3.1_F3.1_T3.2_[T9A]],> 2300
12,UCUCUUUAACACUAUACGUCUCUU (ssRNA) [Id_ii_S1_P3E.4_K3.3_C3.2_[C-2T]_[T-1A]_H3.3_A3.1_F3.1_T3.2_[T9C]_[A10G]],> 2300
13,UCUCUUAAACACUAUAAAUCUCUU (ssRNA) [Id_ii_S1_P3E.4_K3.3_C3.2_[C-2A]_[T-1A]_H3.3_A3.1_F3.1_T3.2_[T9A]],> 2300
14,UCUCUUCGACACUAUACUUCUCUU (ssRNA) [Id_ii_S1_P3E.4_K3.3_C3.2_[T-1G]_H3.3_A3.1_F3.1_T3.2_[T9C]_[A10T]],> 2300
15,UCUCUUGUACACUAUAUCUCUCUU (ssRNA) [Id_ii_S1_P3E.4_K3.3_C3.2_[C-2G]_H3.3_A3.1_F3.1_T3.2_[A10C]],0.836
16,UCUCUUUAUAUGUUAUCUCUU (ssRNA) [Ib_S1_P4E.1_K4.1_C4.1_H4.1_[G2A]_A4.1_[A6G]_F4.1_T4.1],635

row,Binder,Kd [nM]
1,UCUCUUUGACACUAUAAUUCUCUU (ssRNA) [Id_ii_S1_P3E.4_K3.3_C3.2_[C-2T]_[T-1G]_H3.3_A3.1_F3.1_T3.2_[T9A]_[A10T]],> 2300
2,UCUCUUCGACACUAUAACUCUCUU (ssRNA) [Id_ii_S1_P3E.4_K3.3_C3.2_[T-1G]_H3.3_A3.1_F3.1_T3.2_[T9A]_[A10C]],> 2300
3,UCUCUUUUACACUAUACAUCUCUU (ssRNA) [Id_ii_S1_P3E.4_K3.3_C3.2_[C-2T]_H3.3_A3.1_F3.1_T3.2_[T9C]],1140
4,UCUCUUAUACACUAUACGUCUCUU (ssRNA) [Id_ii_S1_P3E.4_K3.3_C3.2_[C-2A]_H3.3_A3.1_F3.1_T3.2_[T9C]_[A10G]],74.5
5,UCUCUUUUUAUAGUAUCUCUU (ssRNA) [Ib_S1_P4E.1_K4.1_C4.1_H4.1_[G2T]_A4.1_[T7G]_F4.1_T4.1],> 2300
6,UCUCUUUAUAUCUUAUCUCUU (ssRNA) [Ib_S1_P4E.1_K4.1_C4.1_H4.1_[G2A]_A4.1_[A6C]_F4.1_T4.1],672
7,UCUCUUAUACACUAUAUUUCUCUU (ssRNA) [Id_ii_S1_P3E.4_K3.3_C3.2_[C-2A]_H3.3_A3.1_F3.1_T3.2_[A10T]],38.6
8,UCUCUUAAACACUAUAUUUCUCUU (ssRNA) [Id_ii_S1_P3E.4_K3.3_C3.2_[C-2A]_[T-1A]_H3.3_A3.1_F3.1_T3.2_[A10T]],> 2300
9,UCUCUUUAUAUUUUAUCUCUU (ssRNA) [Ib_S1_P4E.1_K4.1_C4.1_H4.1_[G2A]_A4.1_[A6T]_F4.1_T4.1],163
10,UCUCUUCGACACUAUAAUUCUCUU (ssRNA) [Id_ii_S1_P3E.4_K3.3_C3.2_[T-1G]_H3.3_A3.1_F3.1_T3.2_[T9A]_[A10T]],> 2300
11,UCUCUUUUACACUAUAUGUCUCUU (ssRNA) [Id_ii_S1_P3E.4_K3.3_C3.2_[C-2T]_H3.3_A3.1_F3.1_T3.2_[A10G]],2220
12,UCUCUUUUACACUAUACGUCUCUU (ssRNA) [Id_ii_S1_P3E.4_K3.3_C3.2_[C-2T]_H3.3_A3.1_F3.1_T3.2_[T9C]_[A10G]],2060
13,UCUCUUCCACACUAUAAUUCUCUU (ssRNA) [Id_ii_S1_P3E.4_K3.3_C3.2_[T-1C]_H3.3_A3.1_F3.1_T3.2_[T9A]_[A10T]],> 2300
14,UCUCUUAUACACUAUACUUCUCUU (ssRNA) [Id_ii_S1_P3E.4_K3.3_C3.2_[C-2A]_H3.3_A3.1_F3.1_T3.2_[T9C]_[A10T]],36.1
15,UCUCUUACACACUAUAGAUCUCUU (ssRNA) [Id_ii_S1_P3E.4_K3.3_C3.2_[C-2A]_[T-1C]_H3.3_A3.1_F3.1_T3.2_[T9G]],> 2300
